Data as given in US20230243823, “BIOMARKER SENSOR-BASED DETECTION OF DISEASE-SPECIFIC BIOMARKERS” (FORSCHUNGSZENTRUM JÜLICH GMBH, published 2023).

Target: lactate dehydrogenase (PfLDH) (Plasmodium falciparum, UniProt Q76NM3 Q76NM3:1-316)
Assay: sandwich plasmon-enhanced fluorescence apta-immunosensor; PfLDH captured by anti-pLDH on AuNPs from diluted human blood; 0.1 uM aptamer in 10 mM PBS with 1 mM MgCl2 pH 7.1; signal orders of magnitude above PvLDH
Conditions: tags: obtained by bacterial expression; chain copies: 4
Experimental: Uninfected human blood was diluted 1:100 in 25 mM Tris buffer to reduce sample turbidity. The desired amount of Plasmodium falciparum lactate dehydrogenase (P<DH) was added to 1 ml of a diluted solution of the sample to obtain analyte concentrations ranging from 1 fM to 1 μm (based on the undiluted blood). The functionalised substrates were incubated with 1 ml of contaminated blood solution for 2 hours at room temperature.
The specificity of the apta immunosensor was tested against lactate dehydrogenase of Plasmodium vivax (P<LDH), which is 90% identical to P<LDH. The P<LDH was added to uninfected human blood (diluted 1:100 in 1 mL 25 mM Tris buffer) to obtain the highest analyte concentration tested in the calibration curve (1 μM based on undiluted whole blood).

CTGGGCGGTAGAACCATAGTGACCCAGCCGTCTAC (ssDNA) [malaria 2008s aptamer]: binds.
